Values of other authors in publication PMC9441699 (Frontiers in Cellular and Infection Microbiology, 2022).

System: pseudotyped SARS-CoV

B1: Lactoferrin: antiviral milk protein (protein, UniProt P02788 20-710, looked up)
Lactotransferrin: GRRRSVQWCAVSQPEATKCFQWQRNMRKVRGPPVSCIKRDSPIQCIQAIAENRADAVTLDGGFIYEAGLAPYKLRPVAAEVYGTERQPRTHYYAVAVVKKGGSFQLNELQGLKSCHTGLRRTAGWNVPIGTLRPFLNWTGPPEPIEAAVARFFSASCVPGADKGQFPNLCRLCAGTGENKCAFSSQEPYFSYSGAFKCLRDGAGDVAFIRESTVFEDLSDEAERDEYELLCPDNTRKPVDKFKDCHLARVPSHAVVARSVNGKEDAIWNLLRQAQEKFGKDKSPKFQLFGSPSGQKDLLFKDSAIGFSRVPPRIDSGLYLGSGYFTAIQNLRKSEEEVAARRARVVWCAVGEQELRKCNQWSGLSEGSVTCSSASTTEDCIALVLKGEADAMSLDGGYVYTAGKCGLVPVLAENYKSQQSSDPDPNCVDRPVEGYLAVAVVRRSDTSLTWNSVKGKKSCHTAVDRTAGWNIPMGLLFNQTGSCKFDEYFSQSCAPGSDPRSNLCALCIGDEQGENKCVPNSNERYYGYTGAFRCLAENAGDVAFVKDVTVLQNTDGNNNEAWAKDLKLADFALLCLDGKRKPVTEARSCHLAMAPNHAVVSRMDKVERLKQVLLHQQAKFGRNGSDCPDKFCLFQSETKNLLFNDNTECLARLHGKTTYEKYLGPQYVAGITNLKKCSTSPLLEACEFLRK
inhibition of pseudotyped SARS-CoV: 50%
